Reference: patent US20220380464A1 (Genmab, published 2022)
Changes are numbered by the printed parent chain. Numbers in names are those of the source.

B1: UniTE-huCD3-H1L1-LT41K (antibody, V domains shown)
VH: EVKLVESGGGLVQPGGSLRLSCAASGFTFNTYAMNWVRQAPGKGLEWVARIRSKYNNYATYYADSVKDRFTISRDDSKSSLYLQMNNLKTEDTAMYYCVRHGNFGNSYVSWFAYWGQGTLVTVSS
VL: not shown
notes: also called UniTE-huCD3-H1L1-LT41K (WT); UniTE-huCD3-H1L1-T41K
B2: UniTE-huCD3-H1L1-T31M-LT41K (antibody, V domains shown)
VH: B1 VH with T31M
VL: not shown
notes: Monovalent UniBody-TE format
B3: IgG1-huCD3-S110A-FEAL (antibody, V domains shown)
VH: B1 VH with S110A
VL: not shown
B4: IgG1-huCD3-Y32A-FEAL (antibody, V domains shown)
VH: B1 VH with Y32A
VL: not shown
B5: UniTE-huCD3-H1L1-G105P-LT41K (antibody, V domains shown)
VH: B1 VH with G105P
VL: not shown
notes: Monovalent UniBody-TE format
B6: IgG1-huCD3-Y114R-FEAL (antibody, V domains shown)
VH: B1 VH with Y114R
VL: not shown
B7: IgG1-huCD3-T31P-FEAL (antibody, V domains shown)
VH: B1 VH with T31P
VL: not shown
B8: UniTE-huCD3-H1L1-H101I-LT41K (antibody, V domains shown)
VH: B1 VH with H101I
VL: not shown
notes: Monovalent UniBody-TE format
B9: IgG1-huCD3-T31M-FEAL (antibody, V domains shown)
VH: B1 VH with T31M
VL: not shown
B10: UniTE-huCD3-H1L1-S110A-LT41K (antibody, V domains shown)
VH: B1 VH with S110A
VL: not shown
notes: Monovalent UniBody-TE format
B11: UniTE-huCD3-H1L1-Y114M-LT41K (antibody, V domains shown)
VH: B1 VH with Y114M
VL: not shown
notes: Monovalent UniBody-TE format
B12: UniTE-huCD3-H1L1-H101N-LT41K (antibody, V domains shown)
VH: B1 VH with H101N
VL: not shown
notes: Monovalent UniBody-TE format
B13: IgG1-huCD3-H101K-FEAL (antibody, V domains shown)
VH: B1 VH with H101K
VL: not shown
B14: UniTE-huCD3-H1L1-H101F-LT41K (antibody, V domains shown)
VH: B1 VH with H101F
VL: not shown
notes: Monovalent UniBody-TE format
B15: UniTE-huCD3-H1L1-Y114V-LT41K (antibody, V domains shown)
VH: B1 VH with Y114V
VL: not shown
B16: UniTE-huCD3-H1L1-H101G-LT41K (antibody, V domains shown)
VH: B1 VH with H101G
VL: not shown
notes: Monovalent UniBody-TE format
B17: UniTE-huCD3-H1L1-S110G-LT41K (antibody, V domains shown)
VH: B1 VH with S110G
VL: not shown
notes: Monovalent UniBody-TE format
B18: UniTE-huCD3-H1L1-Y32A-LT41K (antibody, V domains shown)
VH: B1 VH with Y32A
VL: not shown
notes: Monovalent UniBody-TE format
B19: IgG1-huCD3-N57E-FEAL (antibody, V domains shown)
VH: B1 VH with N57E
VL: not shown
B20: IgG1-huCD3-Y114M-FEAL (antibody, V domains shown)
VH: B1 VH with Y114M
VL: not shown
B21: IgG1-huCD3-H101L-FEAL (antibody, V domains shown)
VH: B1 VH with H101L
VL: not shown
B22: IgG1-huCD3-S110G-FEAL (antibody, V domains shown)
VH: B1 VH with S110G
VL: not shown
B23: UniTE-huCD3-H1L1-T31P-LT41K (antibody, V domains shown)
VH: B1 VH with T31P
VL: not shown
notes: Monovalent UniBody-TE format
B24: IgG1-huCD3-Y114V-FEAL (antibody, V domains shown)
VH: B1 VH with Y114V
VL: not shown
B25: IgG1-huCD3-G105P-FEAL (antibody, V domains shown)
VH: B1 VH with G105P
VL: not shown
B26: UniTE-huCD3-H1L1-T31A-LT41K (antibody, V domains shown)
VH: B1 VH with T31A
VL: not shown
notes: Monovalent UniBody-TE format
B27: UniTE-huCD3-H1L1-Y114R-LT41K (antibody, V domains shown)
VH: B1 VH with Y114R
VL: not shown
notes: Monovalent UniBody-TE format
B28: UniTE-huCD3-H1L1-H101K-LT41K (antibody, V domains shown)
VH: B1 VH with H101K
VL: not shown
notes: Monovalent UniBody-TE format
B29: IgG1-huCD3-H101N-FEAL (antibody, V domains shown)
VH: B1 VH with H101N
VL: not shown
B30: UniTE-huCD3-H1L1-N57E-LT41K (antibody, V domains shown)
VH: B1 VH with N57E
VL: not shown
notes: Monovalent UniBody-TE format

Tests used:
CD3ε27-GSKa [1] = molecular target: T1, CD3ε27-GSKa (human); assay: BLI (Octet), summary table repeating Table 4
T1 construct: also called Mature CD3ε27-GSKa
T1 sequence (chain, as listed by the source limits assumed): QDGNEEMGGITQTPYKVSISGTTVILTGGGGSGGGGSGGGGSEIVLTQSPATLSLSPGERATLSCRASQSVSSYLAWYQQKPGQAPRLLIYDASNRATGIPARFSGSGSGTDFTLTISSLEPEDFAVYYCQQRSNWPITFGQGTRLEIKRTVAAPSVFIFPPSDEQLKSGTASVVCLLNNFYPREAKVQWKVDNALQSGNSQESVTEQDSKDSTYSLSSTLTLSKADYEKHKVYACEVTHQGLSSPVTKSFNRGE
Procedure: (§1) Experiments were carried out while shaking at 1000 rpm and at 30° C.

[2] = molecular target: T2, human CD3 on human T cells (human, UniProt P07766 23-207); assay: flow cytometry on isolated human T cells, PE anti-human IgG detection
T2 construct: Natural CD3/TCR complex on T cells isolated from human donor buffy coats; The other chains of the complex (CD3γ, CD3δ, CD3ζ, polyclonal TCR) are also present on the cells
T2 sequence (P07766 23-207 limits assumed): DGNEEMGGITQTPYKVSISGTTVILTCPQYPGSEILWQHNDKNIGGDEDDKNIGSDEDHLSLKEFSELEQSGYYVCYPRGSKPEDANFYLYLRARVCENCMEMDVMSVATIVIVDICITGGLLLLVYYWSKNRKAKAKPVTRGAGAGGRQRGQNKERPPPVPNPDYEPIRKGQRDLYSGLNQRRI
Procedure: (§2) T cells were Isolated from a buffy coat fraction of anti-coagulated human donor blood samples and resuspended in PBS/0.1% BSA/0.02% azide at 1.8×10E6 cells/mL. 50 μL of T cell suspension and 50 μL of the antibody dilutions were combined in a 96 well plate on ice, Incubated for 30 min at 4° C. and washed twice with PBS/0.1% BSA/0.02% azide. […] The cells were resuspended in 120 μL PBS/0.1% BSA/0.02% azide and PE geometric Mean Fluorescence Intensity was measured. Binding curves were analyzed using non-linear regression (sigmoidal dose-response with variable slope) using GraphPad Prism V5.04 software (GraphPad Software, San Diego, Calif., USA) and apparent affinity (KD) was derived from the concentration at half-maximal binding.

CD3ε27-GSKa [3] = molecular target: T1, CD3ε27-GSKa; assay: BLI (Octet HTX), UniTE antibody on anti-human Fc sensors, CD3ε27-GSKa in solution, 1:1 fit
Procedure: as §1

CD3ε27-GSKa [4] = molecular target: T1, CD3ε27-GSKa; assay: BLI (Octet HTX), IgG on anti-human Fc sensors, CD3ε27-GSKa 1000-1.4 nM in solution, 1:1 fit, average
Procedure: as §1
Data was analyzed with ForteBio Data Analysis Software v8.1, using the 1:1 model and a global full fit with 1000 s association time and 100 s dissociation time. […] Data traces with a response <0.05 nm were excluded from analysis.

[5] = molecular target: T2, human CD3 on human T cells; assay: flow cytometry on human T cells, PE anti-human IgG, GM-PE
Procedure: as §2

Row | Binder | Kd (CD3ε27-GSKa [1]) [nM] | Tcell binding average at 5000ng/ml (Geometric MFI) [2] [Geometric MFI] | Ka (CD3ε27-GSKa [3]) [M⁻¹] | Kd (CD3ε27-GSKa [3]) [nM] | Kd (CD3ε27-GSKa [4]) [nM] | pKD (CD3ε27-GSKa [4]) | binding result [5]
1 | B1 | 34 | 13200 | 3e+07 | 34 | – | – | –
2 | B2 | 200 | 1920 | 5.1e+06 | 200 | – | – | –
3 | B3 | – | – | – | – | 72 | 7.1 | –
4 | B4 | – | – | – | – | 105 | 7 | –
5 | B5 | 35 | 10500 | 2.8e+07 | 35 | – | – | –
6 | B6 | – | – | – | – | 46 | 7.3 | –
7 | B7 | – | – | – | – | 42 | 7.4 | –
8 | B8 | 220 | – | 4.6e+06 | 220 | – | – | –
9 | B9 | – | – | – | – | 99 | 7 | –
10 | B10 | 320 | 1660 | 3.1e+06 | 320 | – | – | –
11 | B11 | 76 | 3830 | 1.3e+07 | 76 | – | – | –
12 | B12 | 200 | 848 | 5.1e+06 | 200 | – | – | –
13 | B13 | – | – | – | – | 120 | 6.9 | –
14 | B14 | – | 641 | – | – | – | – | no binding (tested: 5000 ng/mL)
15 | B15 | 75 | 6020 | 1.3e+07 | 75 | – | – | –
16 | B16 | 970 | 492 | 1e+06 | 970 | – | – | –
17 | B17 | 61 | 949 | 1.6e+07 | 61 | – | – | –
18 | B18 | – | 719 | – | – | – | – | –
19 | B19 | – | – | – | – | 91 | 7 | –
20 | B20 | – | – | – | – | 42 | 7.4 | –
21 | B21 | – | – | – | – | 107 | 7 | –
22 | B22 | – | – | – | – | 153 | 6.8 | –
23 | B23 | 49 | 4290 | 2e+07 | 49 | – | – | –
24 | B24 | – | – | – | – | 29 | 7.5 | –
25 | B25 | – | – | – | – | 5 | 8.3 | –
26 | B26 | – | 10200 | – | – | – | – | –
27 | B27 | – | 6200 | – | – | – | – | –
28 | B28 | – | 1320 | – | – | – | – | –
29 | B29 | – | – | – | – | 45 | 7.3 | –
30 | B30 | 24 | 8490 | 4.1e+07 | 24 | – | – | –
